Test results published in PMC5716044 (The Journal of Experimental Medicine, 2017).

Molecular target: full-length EphA4 containing C-terminal FLAG and hexahistidine tags (EphA4-FLAGhis6) (human, UniProt P54764 20-986)
Experiment: pull-down

Sequence of full-length EphA4 containing C-terminal FLAG and hexahistidine tags (EphA4-FLAGhis6) (P54764 20-986): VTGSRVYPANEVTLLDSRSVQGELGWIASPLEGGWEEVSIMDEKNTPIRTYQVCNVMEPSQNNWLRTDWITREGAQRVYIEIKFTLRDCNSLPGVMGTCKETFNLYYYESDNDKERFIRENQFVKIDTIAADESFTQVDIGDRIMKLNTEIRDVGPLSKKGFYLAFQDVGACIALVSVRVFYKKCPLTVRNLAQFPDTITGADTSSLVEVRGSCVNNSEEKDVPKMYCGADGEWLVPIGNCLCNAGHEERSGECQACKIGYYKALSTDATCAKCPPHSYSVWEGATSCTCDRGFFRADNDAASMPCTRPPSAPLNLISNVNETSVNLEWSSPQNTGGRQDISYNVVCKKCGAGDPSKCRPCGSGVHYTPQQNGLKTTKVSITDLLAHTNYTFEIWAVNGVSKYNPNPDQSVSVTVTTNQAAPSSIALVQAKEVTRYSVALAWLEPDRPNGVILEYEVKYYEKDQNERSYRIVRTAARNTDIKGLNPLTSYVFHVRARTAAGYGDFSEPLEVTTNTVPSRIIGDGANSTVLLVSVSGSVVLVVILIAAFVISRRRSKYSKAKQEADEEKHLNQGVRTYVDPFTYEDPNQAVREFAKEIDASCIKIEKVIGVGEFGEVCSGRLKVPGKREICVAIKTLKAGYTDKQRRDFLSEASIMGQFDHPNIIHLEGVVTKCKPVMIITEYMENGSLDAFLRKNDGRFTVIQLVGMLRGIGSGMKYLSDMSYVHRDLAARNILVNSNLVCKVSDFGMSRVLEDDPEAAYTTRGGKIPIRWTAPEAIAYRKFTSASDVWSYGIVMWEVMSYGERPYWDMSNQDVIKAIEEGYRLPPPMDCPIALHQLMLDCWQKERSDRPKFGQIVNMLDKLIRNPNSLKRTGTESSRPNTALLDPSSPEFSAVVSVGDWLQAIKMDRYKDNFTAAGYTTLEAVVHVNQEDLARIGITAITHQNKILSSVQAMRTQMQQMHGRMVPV

Binder	binding result
SORLA YWTD repeat/EGF-like region (aa 758-1,076) fused to Fc, WT (Fc fusion, UniProt Q92673 758-1076, looked up) NEFILYAVRKSIYRYDLASGATEQLPLTGLRAAVALDFDYEHNCLYWSDLALDVIQRLCLNGSTGQEVIINSGLETVEALAFEPLSQLLYWVDAGFKKIEVANPDGDFRLTIVNSSVLDRPRALVLVPQEGVMFWTDWGDLKPGIYRSNMDGSAAYHLVSEDVKWPNGISVDDQWIYWTDAYLECIERITFSGQQRSVILDNLPHPYAIAVFKNEIYWDDWSQLSIFRASKYSGSQMEILANQLTGLMDMKIFYKGKNTGSNACVPRPCSLLCLPKANNSRSCRCPEDVSSSVLPSGDLMCDCPQGYQLKNNTCVKQEN	binds
SORLA YWTD repeat/EGF-like region (aa 758-1,076) fused to Fc, T947M variant (Fc fusion, UniProt Q92673 758-1076, looked up) NEFILYAVRKSIYRYDLASGATEQLPLTGLRAAVALDFDYEHNCLYWSDLALDVIQRLCLNGSTGQEVIINSGLETVEALAFEPLSQLLYWVDAGFKKIEVANPDGDFRLTIVNSSVLDRPRALVLVPQEGVMFWTDWGDLKPGIYRSNMDGSAAYHLVSEDVKWPNGISVDDQWIYWTDAYLECIERIMFSGQQRSVILDNLPHPYAIAVFKNEIYWDDWSQLSIFRASKYSGSQMEILANQLTGLMDMKIFYKGKNTGSNACVPRPCSLLCLPKANNSRSCRCPEDVSSSVLPSGDLMCDCPQGYQLKNNTCVKQEN	binds
